How the values were obtained:
[1] = biological target: LRRK2-phosphorylated Rab10 (pRab10) (human (endogenous in HEK293T)) (UniProt P61026)
[2] = biological target: His6 Myosin Va GTD (1,464–1,855) (UniProt Q9Y4I1); test: MST; Monolith NT.115; RED-NHS labelled His6-MyoVa GTD fixed at 100 nM, 16 serial dilutions of the unlabelled Rab/Mst3 reaction mixture (+ATP phosphorylated 2 h at 27°C; -ATP control); 50 mM Hepes pH 7.5, 5% glycerol, 150 mM NaCl, 5 mM MgCl2, 0.1 mM TCEP, GTP, 6 μM BSA, 0.01% Tween-20; 30 min in the dark at 25°C; Mst3 kinase present
[3] = biological target: T1, His6 Myosin Va GTD (1,464–1,855) (UniProt Q9Y4I1 1464-1855, labeled with RED-NHS 2nd Generation (amine reactive) dye (NT-647)); test: MST; unphosphorylated Rab10
T1 chain: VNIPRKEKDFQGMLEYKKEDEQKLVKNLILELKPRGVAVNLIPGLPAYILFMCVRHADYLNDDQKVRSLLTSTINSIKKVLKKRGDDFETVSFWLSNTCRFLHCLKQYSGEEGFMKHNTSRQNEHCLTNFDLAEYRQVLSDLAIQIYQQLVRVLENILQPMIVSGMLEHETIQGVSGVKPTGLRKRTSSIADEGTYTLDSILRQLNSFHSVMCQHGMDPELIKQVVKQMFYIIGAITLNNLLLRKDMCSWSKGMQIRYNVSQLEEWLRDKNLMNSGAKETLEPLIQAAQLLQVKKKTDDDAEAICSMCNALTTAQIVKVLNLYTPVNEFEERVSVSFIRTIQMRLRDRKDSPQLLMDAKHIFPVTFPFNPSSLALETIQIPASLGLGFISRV

[4] = biological target: T1, His6 Myosin Va GTD (1,464–1,855); test: MST; Rab8A phosphorylated by Mst3
[5] = biological target: T2, His6 Myosin Va GTD (1,464–1,855) (UniProt Q9Y4I1 1464-1855, labeled with RED-NHS 2nd Generation (amine reactive) dye (NT-647)); test: MST; Monolith NT.115; RED-NHS labelled His6-MyoVa GTD fixed at 100 nM, 16 serial dilutions of the unlabelled Rab/Mst3 reaction mixture (+ATP phosphorylated 2 h at 27°C; -ATP control); 50 mM Hepes pH 7.5, 5% glycerol, 150 mM NaCl, 5 mM MgCl2, 0.1 mM TCEP, GTP, 6 μM BSA, 0.01% Tween-20; 30 min in the dark at 25°C; Mst3 kinase present; details: both partners purified
T2 construct: Myosin Va globular tail domain, residues 1,464-1,855; bacterial expression plasmid a gift from Amir Khan; purified as described by Berndsen et al 2019 and Waschbüsch et al 2020; the limits differ from those of the mCherry construct m3 (1,421-1,880, mouse); also called His6-MyoVa GTD; purified MyoVa GTD; source: E. coli BL21 (DE3 pLys), purified (Ni-NTA, Superdex-75)

[6] = biological target: T1, His6 Myosin Va GTD (1,464–1,855); test: MST; unphosphorylated Rab8A

## full-length MyoVa mCherry (natural protein)
[1]
  FLIP in HeLa cells expressing R1441G LRRK2: half-time of fluorescence loss of MyoVa mCherry over the pericentriolar region of interest (adjacent cytoplasm t1/2 = 83 s; retention ameliorated by MLi-2): 4.53 min

## His6 Rab10-Q63L (1–181) phosphorylated in vitro by Mst3 (from UniProt P61026 1-181) (domain or fragment)
[2]
  Kd: 0.475 µM

## MyoVa GTD-mCherry (1,421–1,880) (domain or fragment)
[1]
  FLIP in HeLa cells expressing R1441G LRRK2: half-time of fluorescence loss of GTD-mCherry over the region of interest against adjacent cytoplasm; dependent on kinase activity: 107 s

B1: His6 Rab10-Q63L (1–181), non-phosphorylated (domain or fragment)
chain: MAKKTYDLLFKLLLIGDSGVGKTCVLFRFSDDAFNTTFISTIGIDFKIKTVELQGKKIKLQIWDTAGLERFHTITTSYYRGAMGIMLVYDITNGKSFENISKWLRNIDEHANEDVERMLLGNKCDMDDKRVVPKGKGEQIAREHGIRFFETSAKANINIEKAFLTLAEDILRKTPVKEPNS
[3]
  Kd: > 18 µM

B2: His6 Rab8A Q63L phosphorylated in vitro by Mst3 (natural protein)
chain: MAKTYDYLFKLLLIGDSGVGKTCVLFRFSEDAFNSTFISTIGIDFKIRTIELDGKRIKLQIWDTAGLERFRTITTAYYRGAMGIMLVYDITNEKSFDNIRNWIRNIEEHASADVEKMILGNKCDVNDKRQVSKERGEKLALDYGIKFMETSAKANINVENAFFTLARDIKAKMDKKLEGNSPQGSNQGVKITPDQQKRSSFFRCVLL
modifications: phosphorylated by Mst3 (residue not given)
[4]
  Kd: 6.6 µM
[5]
  fold weaker binding than pRab10: ~14 fold

B3: His6 Rab8A Q63L, non-phosphorylated (natural protein)
chain: MAKTYDYLFKLLLIGDSGVGKTCVLFRFSEDAFNSTFISTIGIDFKIRTIELDGKRIKLQIWDTAGLERFRTITTAYYRGAMGIMLVYDITNEKSFDNIRNWIRNIEEHASADVEKMILGNKCDVNDKRQVSKERGEKLALDYGIKFMETSAKANINVENAFFTLARDIKAKMDKKLEGNSPQGSNQGVKITPDQQKRSSFFRCVLL
[6]
  Kd: > 29 µM

Reference: article PMC7994366, “LRRK2-phosphorylated Rab10 sequesters Myosin Va with RILPL2 during ciliogenesis blockade” (Life Science Alliance, 2021)
